Measurements from US20080181886A1 (Genentech, published 2008).

Experiments:
Murine APRIL [1] = target: T1, Murine APRIL (mouse, UniProt Q9D777 105-241, limits assumed); assay: shotgun scan, phage display
T1 sequence (looked up): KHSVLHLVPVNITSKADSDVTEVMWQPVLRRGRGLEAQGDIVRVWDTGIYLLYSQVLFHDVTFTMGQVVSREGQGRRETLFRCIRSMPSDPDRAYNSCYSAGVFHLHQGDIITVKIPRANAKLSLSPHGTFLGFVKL
From the text: (§1) Phage from each of the libraries described above were subjected to rounds of binding selection against APRIL, BAFF, or anti-tag antibody (3C8:2F4 Genentech, Inc.) immobilized on 96-well Nunc Maxisorp immunoplates (Sidhu, 2001). BSA-coated wells were used to determine non-specific background binding. Phage eluted from each target were propagated in E. coli XL1-Blue in the presence of M13K07 helper phage; amplified phage were used for selection against the same target in the […] round. […] Enrichment was calculated from the ratio of the phage titer eluted from the target-coated wells to the phage titer eluted from the BSA-coated wells. Individual clones from each library and selection target were then grown in a 96-well format in 400 ul of 2YT medium supplemented with carbenicillin and KO7 helper phage. […] Sequences of acceptable quality were translated and aligned. For APRIL-binding, 71, 40, and 54 sequences were analyzed from libraries one, two and three, respectively. For BAFF-binding, 70, 50, and 53 sequences were analyzed for libraries one, two and three, respectively. For the display selection, a minimum of 47 sequences were analyzed for each library. […] F values describe the effect of mutation on target binding, while accounting for differences in display efficiencies, with values >1 representing deleterious mutations and those <1 representing favorable mutations.

human BAFF [2] = target: T2, human BAFF (human, UniProt Q9Y275 82-285, limits assumed); assay: shotgun scan, phage display
T2 sequence (Q9Y275 82-285 limits assumed): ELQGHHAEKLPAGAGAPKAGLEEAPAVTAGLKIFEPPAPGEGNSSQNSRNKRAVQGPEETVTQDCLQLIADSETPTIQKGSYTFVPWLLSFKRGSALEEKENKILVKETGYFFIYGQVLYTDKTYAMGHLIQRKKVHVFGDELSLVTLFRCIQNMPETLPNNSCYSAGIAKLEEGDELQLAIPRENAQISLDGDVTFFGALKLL
From the text: as §1

Murine APRIL [3] = target: T1, Murine APRIL; assay: NNS library, phage display;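 further: ligand versus display occurrence-to-degeneracy ratio and higher means enriched by binding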
Protocol: (§2) This new phage library was subjected to sorting against either BAFF, APRIL or the display target antibody. After 3 rounds of sorting, approximately 48 clones were picked from each selection and the DNA sequences of the phage clones were determined. […] The normalized F′ value corrects for display bias and is calculated as the percent occurrence to percent degeneracy ratio for ligand selection divided by the percent occurrence to percent degeneracy ratio for display efficiency. Percent occurrence is calculated by dividing the number of times a particular amino acid appeared at a particular position by the total number of amino acids sequenced at that position followed by multiplying by 100. Percent degeneracy is calculated by dividing the degeneracy in code for a particular amino acid divided by the total degeneracy possible at that position followed by multiplying by 100 (e.g., if only A, G and I were selected, total degeneracy possible would be 5).

human BAFF [4] = target: T2, human BAFF; assay: NNS library, phage display;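 further: ligand versus display occurrence-to-degeneracy ratio and higher means enriched by binding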
Protocol: as §2

## SLSCRKEQGKFYAHLLRDCISCASICGQHPKQCAYFCENKLR (receptor, phage library variant, format as m9) [TACI_d2 D80A]
Murine APRIL [1]
  F (APRIL): > 43
Human BAFF [2]
  F (BAFF): > 42

## SLSCRKEQGKFYDHLLRDCTSCASICGQHPKQCAYFCENKLR (receptor, phage library variant, format as m9) [TACI_d2 I87T]
Murine APRIL [1]
  F (APRIL): > 19
Human BAFF [2]
  F (BAFF): > 22

## SLSCRKEQGKFGDHLLRDCISCASICGQHPKQCAYFCENKLR (receptor, phage library variant, format as m9) [TACI_d2 Y79G]
Murine APRIL [3]
  F' APRIL: 0
Human BAFF [4]
  F' BAFF: 0

## SLSCRKEQGKFVDHLLRDCISCASICGQHPKQCAYFCENKLR (receptor, phage library variant, format as m9) [TACI_d2 Y79V]
Murine APRIL [3]
  F' APRIL: 0
Human BAFF [4]
  F' BAFF: 2

## SLSCRKEQGKFPDHLLRDCISCASICGQHPKQCAYFCENKLR (receptor, phage library variant, format as m9) [TACI_d2 Y79P]
Murine APRIL [3]
  F' APRIL: 2
Human BAFF [4]
  F' BAFF: 3

## SLSCRKEQGKFYDHLLRDCISCASICAQHPKQCAYFCENKLR (receptor, phage library variant, format as m9) [TACI_d2 G94A]
Murine APRIL [1]
  F (APRIL): 34
Human BAFF [2]
  F (BAFF): 10

## SLSCRKEQGKFYDHLLTDCISCASICGQHPKQCAYFCENKLR (receptor, phage library variant, format as m9) [TACI_d2 R84T]
Murine APRIL [3]
  F' APRIL: 0
Human BAFF [4]
  F' BAFF: 3

## SLSCRKEQGKFKDHLLRDCISCASICGQHPKQCAYFCENKLR (receptor, phage library variant, format as m9) [TACI_d2 Y79K]
Murine APRIL [3]
  F' APRIL: 0
Human BAFF [4]
  F' BAFF: 0

## SLSCRKEQGKFRDHLLRDCISCASICGQHPKQCAYFCENKLR (receptor, phage library variant, format as m9) [TACI_d2 Y79R]
Murine APRIL [3]
  F' APRIL: 0
Human BAFF [4]
  F' BAFF: 0

## SLSCRKEQGKFYDHLLRDCISCASACGQHPKQCAYFCENKLR (receptor, phage library variant, format as m9) [TACI_d2 I92A]
Murine APRIL [3]
  F' APRIL: 0
Human BAFF [4]
  F' BAFF: 0
Murine APRIL [1]
  F (APRIL): 11

## SLSCRKEQGKFLDHLLRDCISCASICGQHPKQCAYFCENKLR (receptor, phage library variant, format as m9) [TACI_d2 Y79L]
Murine APRIL [3]
  F' APRIL: 0
Human BAFF [4]
  F' BAFF: 1

## SLSCRKEQGKSYDHLLRDCISCASICGQHPKQCAYFCENKLR (receptor, phage library variant, format as m9) [TACI_d2 F78S]
Murine APRIL [3]
  F' APRIL: 0
Human BAFF [4]
  F' BAFF: 0
Murine APRIL [1]
  F (APRIL): > 66

## SLSCRKEQGKFYDHLLSDCISCASICGQHPKQCAYFCENKLR (receptor, phage library variant, format as m9) [TACI_d2 R84S]
Murine APRIL [3]
  F' APRIL: 0
Human BAFF [4]
  F' BAFF: 0

## SLSCRKEQGKFADHLLRDCISCASICGQHPKQCAYFCENKLR (receptor, phage library variant, format as m9) [TACI_d2 Y79A]
Murine APRIL [3]
  F' APRIL: 0
Human BAFF [4]
  F' BAFF: 0
Murine APRIL [1]
  F (APRIL): > 21

## SLSCRKEQGKFYDHLLKDCISCASICGQHPKQCAYFCENKLR (receptor, phage library variant, format as m9) [TACI_d2 R84K]
Murine APRIL [3]
  F' APRIL: 0
Human BAFF [4]
  F' BAFF: 1

## SLSCRKEQGKFMDHLLRDCISCASICGQHPKQCAYFCENKLR (receptor, phage library variant, format as m9) [TACI_d2 Y79M]
Murine APRIL [3]
  F' APRIL: 0
Human BAFF [4]
  F' BAFF: 0

## SLSCRKEQGKFFDHLLRDCISCASICGQHPKQCAYFCENKLR (receptor, phage library variant, format as m9) [TACI_d2 Y79F]
Murine APRIL [3]
  F' APRIL: 4
Human BAFF [4]
  F' BAFF: 5

## SLSCRKEQGKFIDHLLRDCISCASICGQHPKQCAYFCENKLR (receptor, phage library variant, format as m9) [TACI_d2 Y79I]
Murine APRIL [3]
  F' APRIL: 4
Human BAFF [4]
  F' BAFF: 6

## SLSCRKEQGKFYDHLLWDCISCASICGQHPKQCAYFCENKLR (receptor, phage library variant, format as m9) [TACI_d2 R84W]
Murine APRIL [3]
  F' APRIL: 9
Human BAFF [4]
  F' BAFF: 0

## SLSCRKEQGKFYDHLLMDCISCASICGQHPKQCAYFCENKLR (receptor, phage library variant, format as m9) [TACI_d2 R84M]
Murine APRIL [3]
  F' APRIL: 18
Human BAFF [4]
  F' BAFF: 7

## SLSCRKEQGKFNDHLLRDCISCASICGQHPKQCAYFCENKLR (receptor, phage library variant, format as m9) [TACI_d2 Y79N]
Murine APRIL [3]
  F' APRIL: 0
Human BAFF [4]
  F' BAFF: 0

## SLSCRKEQGKFCDHLLRDCISCASICGQHPKQCAYFCENKLR (receptor, phage library variant, format as m9) [TACI_d2 Y79C]
Murine APRIL [3]
  F' APRIL: 0
Human BAFF [4]
  F' BAFF: 0

## SLSCRKEQGKFYDHLLVDCISCASICGQHPKQCAYFCENKLR (receptor, phage library variant, format as m9) [TACI_d2 R84V]
Murine APRIL [3]
  F' APRIL: 4
Human BAFF [4]
  F' BAFF: 2

## SLSCRKEQGKFYDHLLRACISCASICGQHPKQCAYFCENKLR (receptor, phage library variant, format as m9) [TACI_d2 D85A]
Murine APRIL [1]
  F (APRIL): 0.5
Human BAFF [2]
  F (BAFF): 0.8

## SLSCRKEQGKFYDHLLYDCISCASICGQHPKQCAYFCENKLR (receptor, phage library variant, format as m9) [TACI_d2 R84Y]
Murine APRIL [3]
  F' APRIL: 0
Human BAFF [4]
  F' BAFF: 1

## SLSCRKEQGKFYDHLLIDCISCASICGQHPKQCAYFCENKLR (receptor, phage library variant, format as m9) [TACI_d2 R84I]
Murine APRIL [3]
  F' APRIL: 0
Human BAFF [4]
  F' BAFF: 0

## SLSCRKEQGKFYDHLLQDCISCASICGQHPKQCAYFCENKLR (receptor, phage library variant, format as m9) [TACI_d2 R84Q]
Murine APRIL [3]
  F' APRIL: 0
Human BAFF [4]
  F' BAFF: 0

## SLSCRKAQGKFYDHLLRDCISCASICGQHPKQCAYFCENKLR (receptor, phage library variant, format as m9) [TACI_d2 E74A]
Murine APRIL [1]
  F (APRIL): 0.7
Human BAFF [2]
  F (BAFF): 0.6

## SLSCRKEQGKFYDHLLHDCISCASICGQHPKQCAYFCENKLR (receptor, phage library variant, format as m9) [TACI_d2 R84H]
Murine APRIL [3]
  F' APRIL: 0
Human BAFF [4]
  F' BAFF: 1

## SLSCRKEQGKFEDHLLRDCISCASICGQHPKQCAYFCENKLR (receptor, phage library variant, format as m9) [TACI_d2 Y79E]
Murine APRIL [3]
  F' APRIL: 8
Human BAFF [4]
  F' BAFF: 0

## SLSCRKEQGKFYDHLLLDCISCASICGQHPKQCAYFCENKLR (receptor, phage library variant, format as m9) [TACI_d2 R84L]
Murine APRIL [3]
  F' APRIL: 3
Human BAFF [4]
  F' BAFF: 2

## SLSCRKEQGKFYDPLLRDCISCASICGQHPKQCAYFCENKLR (receptor, phage library variant, format as m9) [TACI_d2 H81P]
Murine APRIL [1]
  F (APRIL): 1.5
Human BAFF [2]
  F (BAFF): 0.8

## SLSCRKEQGKFHDHLLRDCISCASICGQHPKQCAYFCENKLR (receptor, phage library variant, format as m9) [TACI_d2 Y79H]
Murine APRIL [3]
  F' APRIL: 0
Human BAFF [4]
  F' BAFF: 0

## SLSCRKEQGKFYDHLLRDCASCASICGQHPKQCAYFCENKLR (receptor, phage library variant, format as m9) [TACI_d2 I87A]
Murine APRIL [1]
  F (APRIL): > 27
Human BAFF [2]
  F (BAFF): > 30

## SLSCRKEQGKFYDHLLRDCISCASICGQHPKQCAYVCENKLR (receptor, phage library variant, format as m9) [TACI_d2 F103V]
Murine APRIL [1]
  F (APRIL): 0.6
Human BAFF [2]
  F (BAFF): 0.7

## SLSCRKEQGKFYDHLLNDCISCASICGQHPKQCAYFCENKLR (receptor, phage library variant, format as m9) [TACI_d2 R84N]
Murine APRIL [3]
  F' APRIL: 0
Human BAFF [4]
  F' BAFF: 1

## SLSCRKEQGKFYDHLLADCISCASICGQHPKQCAYFCENKLR (receptor, phage library variant, format as m9) [TACI_d2 R84A]
Murine APRIL [3]
  F' APRIL: 2
Human BAFF [4]
  F' BAFF: 3
Murine APRIL [1]
  F (APRIL): 1.1

## SLSCRKEQGKFQDHLLRDCISCASICGQHPKQCAYFCENKLR (receptor, phage library variant, format as m9) [TACI_d2 Y79Q]
Murine APRIL [3]
  F' APRIL: 0
Human BAFF [4]
  F' BAFF: 0

## SLSCRKEQGKFWDHLLRDCISCASICGQHPKQCAYFCENKLR (receptor, phage library variant, format as m9) [TACI_d2 Y79W]
Murine APRIL [3]
  F' APRIL: 3
Human BAFF [4]
  F' BAFF: 4

## SLSCRKEQGKFTDHLLRDCISCASICGQHPKQCAYFCENKLR (receptor, phage library variant, format as m9) [TACI_d2 Y79T]
Murine APRIL [3]
  F' APRIL: 0
Human BAFF [4]
  F' BAFF: 0
